These are literature values, as cited in publication PMC5648805.

In general, pKd refers to −log10 of the Kd, conventionally taken in molar units.

One data set addresses Orai1 (Homo sapiens) (UniProt Q96D31).
In data set [1] the target is Calmodulin (Homo sapiens) (UniProt P0DP23). As to the kind of experiment: ITC. A general note: In ITC the heat of successive injections is recorded.

pKd: −log10 of the molar value.

Chain of UniProt Q96D31 (Q96D31 whole entry): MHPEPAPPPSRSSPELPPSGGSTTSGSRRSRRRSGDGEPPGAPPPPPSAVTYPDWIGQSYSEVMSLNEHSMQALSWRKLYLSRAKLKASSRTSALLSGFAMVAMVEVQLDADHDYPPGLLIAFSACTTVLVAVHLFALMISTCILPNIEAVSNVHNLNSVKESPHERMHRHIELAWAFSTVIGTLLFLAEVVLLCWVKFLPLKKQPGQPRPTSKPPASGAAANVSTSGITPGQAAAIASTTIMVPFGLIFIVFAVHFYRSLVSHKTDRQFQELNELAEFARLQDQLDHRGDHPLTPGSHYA

For the substance STIM1 SOAR (from UniProt Q13586), the negative logarithm of the Kd (pKd) with Orai1 (Homo sapiens) is 3.70.
As to “STIM1 polybasic peptide polybasic region (from UniProt Q13586)”, the negative logarithm of the Kd (pKd) in data set [1] is 6.00.
